# Measurements: article doi:10.1101/2022.06.04.494830
# Biological target: EWS low-complexity domain (EWS^LCD, EWS 1-264) (human) (UniProt Q01844)
# Experiment: co-sedimentation
# Sequence of EWS low-complexity domain (EWS^LCD, EWS 1-264) (human) (Q01844 1-264, one chain of several): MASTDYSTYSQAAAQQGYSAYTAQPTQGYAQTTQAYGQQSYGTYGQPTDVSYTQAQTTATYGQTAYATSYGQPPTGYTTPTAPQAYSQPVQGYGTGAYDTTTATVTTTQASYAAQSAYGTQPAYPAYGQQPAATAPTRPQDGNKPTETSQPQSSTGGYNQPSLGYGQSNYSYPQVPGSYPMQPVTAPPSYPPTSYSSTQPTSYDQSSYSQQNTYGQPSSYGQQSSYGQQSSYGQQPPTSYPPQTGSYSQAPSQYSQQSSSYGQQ
substance,measurement,value
FLI1 DNA-binding domain (FLI1^DBD) (domain or fragment),percent of total FLI1^DBD in the pellet fraction,55%
